# In patent US20080098491A1, “MOUSE MODELS TO STUDY CACHEXIA” (ZOLTAN LABORATORIES LLC, priority 2006, published 2008):
# B1: highly purified PALP: human placental alkaline phosphatase purified to homogeneity from commercial PALP; printed as 'PALP' in Tables 1, 7, 8 (protein, UniProt P05187 23-506, looked up)
# Alkaline phosphatase, …: IIPVEEENPDFWNREAAEALGAAKKLQPAQTAAKNLIIFLGDGMGVSTVTAARILKGQKKDKLGPEIPLAMDRFPYVALSKTYNVDKHVPDSGATATAYLCGVKGNFQTIGLSAAARFNQCNTTRGNEVISVMNRAKKAGKSVGVVTTTRVQHASPAGTYAHTVNRNWYSDADVPASARQEGCQDIATQLISNMDIDVILGGGRKYMFRMGTPDPEYPDDYSQGGTRLDGKNLVQEWLAKRQGARYVWNRTELMQASLDPSVTHLMGLFEPGDMKYEIHRDSTLDPSLMEMTEAALRLLSRNPRGFFLFVEGGRIDHGHHESRAYRALTETIMFDDAIERAGQLTSEEDTLSLVTADHSHVFSFGGYPLRGSSIFGLAPGKARDRKAYTVLLYGNGPGYVLKDGARPDVTESESGSPEYRQQSAVPLDEETHAGEDVAVFARGPQAHLVHGVQEQTFIAHVMAFAACLEPYTACDLAPPAGTTD
# Key:
# B16 mouse melanoma [1] = assay: B16 mouse melanoma model, s.c. highly purified PALP (Example 4, Experiment 1); assay type: in vivo; details: highly purified PALP 14-mg/kg s.c.
# Description: The B16 mouse melanoma and MXT mouse mammary tumors were developed in first generation hybrid BDF1 (C57 B1 female×DBA/2 male) adult female mice kept at specified pathogen free (SPF) hygienic level. These models were chosen for these experiments because these mice have the complete immune system, and both tumors grow very rapidly. To develop the tumors, B16 and MXT tumor tissue fragments of about 0.1-cm^3 were surgically implanted subcutaneously into the intrascapular region to develop the tumors. Each tumor fragment contained about 1-1.5×10^6 cells. The animals were kept in macrolon cages on ventilated rack at 22-24° C. (50-60% humidity) with lighting regimen of 12/12 h light/dark. The animals had free access to tap water and were fed with sterilized standard diet (Charles River VRF1, Germany) ad libitum. […]
# In case of both tumor models the tumor size was usually in the range of 0.2 to 0.5-g when treatments started 7-11 days after tumor implantation; the mice were selected so that in the same treatment group the difference in tumor size was no greater than 0.1 gram. […] The tumor volume was determined by using calipers; this technique is well known to one having ordinary skill in the art. Tumor volume was calculated according to the generally accepted formula: V=a^2×b×7r/6, where “a” and “b” mean the shortest and longest diameter, respectively, of the measured tumor. […]
# MXT mouse mammary tumor = assay: Cisplatin-treated MXT mouse mammary tumor model, PALP and TF (Example 9, Experiment 1); assay type: in vivo; details: co-treated with cisplatin 3-mg/kg i.p.
# Description: The B16 mouse melanoma and MXT mouse mammary tumors were developed in first generation hybrid BDF1 (C57 B1 female×DBA/2 male) adult female mice kept at specified pathogen free (SPF) hygienic level. These models were chosen for these experiments because these mice have the complete immune system, and both tumors grow very rapidly. To develop the tumors, B16 and MXT tumor tissue fragments of about 0.1-cm^3 were surgically implanted subcutaneously into the intrascapular region to develop the tumors. Each tumor fragment contained about 1-1.5×10^6 cells. The animals were kept in macrolon cages on ventilated rack at 22-24° C. (50-60% humidity) with lighting regimen of 12/12 h light/dark. The animals had free access to tap water and were fed with sterilized standard diet (Charles River VRF1, Germany) ad libitum. The animals were taken care of according to the “Guiding Principle for the care and use of Animals” based upon the Helsinki declaration and they were approved by the local ethical committee.
# In case of both tumor models the tumor size was usually in the range of 0.2 to 0.5-g when treatments started 7-11 days after tumor implantation; the mice were selected so that in the same treatment group the difference in tumor size was no greater than 0.1 gram. In some experiments, the test proteins were suspended in physiological saline and injected in 50-μl volume subcutaneously in the vicinity of tumor (within 1-cm of tumor margin). In other experiments, the test proteins were dispersed in Vaselinum cholesteratum and used topically; 150-mg cream was applied on the tumor and the vicinity of tumor area (with about 0.5-cm of the tumor margin). The tumor volume was determined by using calipers; this technique is well known to one having ordinary skill in the art. Tumor volume was calculated according to the generally accepted formula: V=a^2×b×7r/6, where “a” and “b” mean the shortest and longest diameter, respectively, of the measured tumor.
# Experiment 1. The mouse MXT mammary tumor was developed as described in Example 3. In the first group, animals remained untreated during the whole observation period. In the second group, starting on the 7th day after tumor implantation, mice were intraperitoneally (i.p.) administered 3-mg per 1-kg total weight of cisplatin 7-times every second day. In the third group, starting on the 7th day after tumor implantation, mice were simultaneously administered 3-mg per 1-kg of cisplatin i.p. and 16-mg per 1-kg of purified PALP s.c. In the fourth group, starting on the 7th day after tumor implantation, mice were simultaneously administered 3-mg per 1-kg of cisplatin i.p. and 60-mg per 1-kg of commercial PALP s.c. In the fifth group, starting on the 7th day after tumor implantation, mice were simultaneously administered 3-mg per 1-kg of cisplatin i.p. and 14-mg per 1-kg of commercial TF (T 3309 in the Sigma catalog) s.c. Each treatment was performed 7-times on every second day. Each group included 7 animals. The mean values for total weight, tumor weight and body weight (the difference between total and tumor weight) are shown in TABLE 6.
# B16 mouse melanoma [2] = details: cited from earlier work
# human HT 168 melanoma = details: total weight includes tumor weight; cited from earlier work
# mouse MXT tumor = details: cisplatin treated; cited from earlier work
molecule,measurement,setting,value
B1,Effect on loss of body weight,B16 mouse melanoma [1],reversed loss of body weight
same,Effect on tumor size,B16 mouse melanoma [1],no major effects on the tumor size
same,Effect on body weight loss induced by the tumor and cisplatin,MXT mouse mammary tumor,not only prevented the loss but significantly enhanced body weight
same,Effect on tumor growth,B16 mouse melanoma [2]; administered subcutaneously or topically,reduced tumor growth
same,Effect on the action of CCDTHT on tumor growth,"B16 mouse melanoma [2]; mouse, in vivo",enhance the effect of CCDTHT
same,Effect on tumor induced loss of total weight,human HT 168 melanoma,reduces tumor induced loss of total weight
same,Effect on total weight loss,mouse MXT tumor,reduce total weight loss
